Measurements taken from publication PMC11955550.

Key:
[1] = molecular target: α-synuclein (αSyn) amyloid fibrils (UniProt P37840); test: co-sedimentation; αSyn fibrils 20 µM (monomer) with DNAJB1 8 µM in HKMD buffer (50 mM HEPES, 50 mM KCl, 5 mM MgCl2, 2 mM DTT, pH 7.50), 30 min at 30 °C; 17,000 g 30 min; pellet and supernatant on SDS-PAGE, densitometry
[2] = molecular target: α-synuclein (αSyn) amyloid fibrils (UniProt P37840); test: co-sedimentation; αSyn fibrils 20 µM (monomer) with DNAJB1 8 µM in low-salt HD buffer (50 mM HEPES, 2 mM DTT, pH 7.50), 30 min at 30 °C; 17,000 g 30 min; pellet and supernatant on SDS-PAGE, densitometry

percent bound [1]: 40% | percent bound [2]: 80%
Substance: wild-type DNAJB1 (from UniProt P25685 1-340) (natural protein)
